{"source": "paper PMC9396398", "about": "“Crystal structure of Ankyrin-G in complex with a fragment of Neurofascin reveals binding mechanisms required for integrity of the axon initial segment” (The Journal of Biological Chemistry, 2022)", "experiment_in_all_cases": "ITC", "key": {"AnkG R1-24 L343Q, L376Q": {"biological_target": "T1, AnkG R1-24 L343Q, L376Q (Rattus norvegicus)", "T1 chain": "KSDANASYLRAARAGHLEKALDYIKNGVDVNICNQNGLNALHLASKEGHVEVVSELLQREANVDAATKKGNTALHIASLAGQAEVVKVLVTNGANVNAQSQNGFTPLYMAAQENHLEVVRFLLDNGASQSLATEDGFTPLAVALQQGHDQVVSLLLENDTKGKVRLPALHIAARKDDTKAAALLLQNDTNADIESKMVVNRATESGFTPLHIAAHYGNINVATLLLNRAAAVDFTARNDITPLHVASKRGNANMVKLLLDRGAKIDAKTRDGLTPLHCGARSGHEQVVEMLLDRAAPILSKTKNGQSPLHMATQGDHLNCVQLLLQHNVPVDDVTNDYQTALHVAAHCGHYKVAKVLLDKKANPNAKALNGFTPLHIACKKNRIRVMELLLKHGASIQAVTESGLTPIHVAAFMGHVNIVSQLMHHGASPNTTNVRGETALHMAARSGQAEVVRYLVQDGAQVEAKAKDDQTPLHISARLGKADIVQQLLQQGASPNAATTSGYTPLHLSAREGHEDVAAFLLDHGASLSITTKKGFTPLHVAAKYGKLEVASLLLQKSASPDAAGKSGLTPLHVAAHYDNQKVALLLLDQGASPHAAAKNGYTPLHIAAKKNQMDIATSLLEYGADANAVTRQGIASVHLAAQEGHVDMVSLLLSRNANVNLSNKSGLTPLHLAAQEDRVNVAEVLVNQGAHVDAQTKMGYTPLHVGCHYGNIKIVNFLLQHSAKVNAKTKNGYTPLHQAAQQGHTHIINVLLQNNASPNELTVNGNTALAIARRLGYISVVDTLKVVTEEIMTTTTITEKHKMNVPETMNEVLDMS"}, "AnkG R1-24 M348Q": {"biological_target": "T2, AnkG R1-24 M348Q (Rattus norvegicus)", "T2 chain": "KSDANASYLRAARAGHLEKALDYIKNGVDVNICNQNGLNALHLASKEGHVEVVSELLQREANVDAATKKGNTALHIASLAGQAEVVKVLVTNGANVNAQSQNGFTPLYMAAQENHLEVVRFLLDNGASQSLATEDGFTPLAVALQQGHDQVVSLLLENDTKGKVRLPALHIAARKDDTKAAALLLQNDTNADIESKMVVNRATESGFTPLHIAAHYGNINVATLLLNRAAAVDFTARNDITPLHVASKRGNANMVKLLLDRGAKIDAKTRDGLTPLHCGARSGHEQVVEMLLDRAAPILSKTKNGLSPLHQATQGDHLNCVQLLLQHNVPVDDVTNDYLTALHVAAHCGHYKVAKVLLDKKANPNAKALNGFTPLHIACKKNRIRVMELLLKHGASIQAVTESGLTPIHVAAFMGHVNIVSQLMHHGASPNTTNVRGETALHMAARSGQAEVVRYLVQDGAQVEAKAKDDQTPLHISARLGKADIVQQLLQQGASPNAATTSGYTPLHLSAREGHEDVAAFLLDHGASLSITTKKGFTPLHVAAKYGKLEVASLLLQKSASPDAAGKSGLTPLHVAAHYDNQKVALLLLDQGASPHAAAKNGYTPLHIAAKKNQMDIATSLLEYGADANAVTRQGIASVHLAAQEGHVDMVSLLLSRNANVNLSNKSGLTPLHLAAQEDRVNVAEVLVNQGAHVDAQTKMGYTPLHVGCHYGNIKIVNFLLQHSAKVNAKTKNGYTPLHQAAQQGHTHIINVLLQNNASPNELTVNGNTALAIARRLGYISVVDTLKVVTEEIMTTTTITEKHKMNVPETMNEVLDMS"}, "AnkG R6-24": {"biological_target": "T3, AnkG R6-24 (Rattus norvegicus)", "T3 chain": "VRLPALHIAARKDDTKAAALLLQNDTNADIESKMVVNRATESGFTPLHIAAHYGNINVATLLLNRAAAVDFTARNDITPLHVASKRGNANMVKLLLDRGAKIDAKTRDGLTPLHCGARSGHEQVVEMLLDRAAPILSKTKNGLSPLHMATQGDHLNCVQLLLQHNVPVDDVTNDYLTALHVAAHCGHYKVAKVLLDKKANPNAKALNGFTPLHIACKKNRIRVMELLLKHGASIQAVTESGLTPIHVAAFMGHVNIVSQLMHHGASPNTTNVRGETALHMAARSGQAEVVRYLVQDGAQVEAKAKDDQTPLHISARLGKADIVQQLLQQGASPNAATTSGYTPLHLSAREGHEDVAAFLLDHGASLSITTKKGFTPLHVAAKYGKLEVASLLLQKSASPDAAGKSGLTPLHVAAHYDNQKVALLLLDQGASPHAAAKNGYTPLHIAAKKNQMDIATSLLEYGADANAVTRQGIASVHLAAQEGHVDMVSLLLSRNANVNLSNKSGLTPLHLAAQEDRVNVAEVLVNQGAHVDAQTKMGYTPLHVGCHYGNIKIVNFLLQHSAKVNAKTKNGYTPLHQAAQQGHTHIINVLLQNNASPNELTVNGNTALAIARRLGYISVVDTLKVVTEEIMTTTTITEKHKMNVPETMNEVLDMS"}, "AnkG R8-24": {"biological_target": "T4, AnkG R8-24 (Rattus norvegicus)", "T4 chain": "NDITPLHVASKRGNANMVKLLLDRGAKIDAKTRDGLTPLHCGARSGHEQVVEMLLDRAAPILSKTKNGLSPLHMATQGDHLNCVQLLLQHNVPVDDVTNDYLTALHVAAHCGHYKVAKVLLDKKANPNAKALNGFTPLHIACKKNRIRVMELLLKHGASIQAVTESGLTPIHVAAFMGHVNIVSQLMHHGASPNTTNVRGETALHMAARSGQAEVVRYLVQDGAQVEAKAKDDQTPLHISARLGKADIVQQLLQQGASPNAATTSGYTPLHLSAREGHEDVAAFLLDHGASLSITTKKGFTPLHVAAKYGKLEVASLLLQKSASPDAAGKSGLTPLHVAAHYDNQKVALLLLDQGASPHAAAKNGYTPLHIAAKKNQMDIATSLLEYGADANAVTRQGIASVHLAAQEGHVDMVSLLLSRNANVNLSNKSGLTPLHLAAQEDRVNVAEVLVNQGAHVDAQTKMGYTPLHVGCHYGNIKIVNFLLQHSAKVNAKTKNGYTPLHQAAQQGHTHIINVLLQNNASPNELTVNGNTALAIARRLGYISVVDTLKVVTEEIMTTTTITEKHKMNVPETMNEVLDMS"}}}
{"binder": "SDDSLVDYGEGGEGQFNEDGSFIGQYTV (domain or fragment, UniProt P97685 1187-1214, looked up, also called Nfasc ABD; source: E. coli BL21 (DE3), purified (Ni-NTA, size-exclusion chromatography))", "note": "[Nfasc ankyrin-binding domain (ABD, residues 1187-1214)]", "values": [{"measurement": "Kd", "setting": "AnkG R1-24 L343Q, L376Q", "result": 2, "unit": "µM"}, {"measurement": "Kd", "setting": "AnkG R1-24 M348Q", "result": 1.8, "unit": "µM"}, {"measurement": "Kd", "setting": "AnkG R6-24", "result": 0.13, "unit": "µM"}, {"measurement": "Kd", "setting": "AnkG R8-24", "result": 1.1, "unit": "µM"}]}
